Consider 14 sequences from the supplement of paper PMC12764529.

± gives the half width of the 95% confidence interval.

Series [1] is described as follows: folding stability dG unfold from trypsin proteolysis; higher = more stable. In outline:
(§1)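 K50 was inferred by Bayesian fitting of sequencing counts obtained after protease digestion of designed mini-proteins. Unfolding free energy was derived by comparison with a sequence-predicted unfolded-state K50 and a shared folded-state K50, for each protease or both combined. The mini-proteins were under 80 residues, had no cysteine, were carried in a PA-tagged cDNA display construct, and were kept only if AlphaFold2 dimer inter-PAE exceeded 15.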

A short description of series [2]: folding stability dG unfold from chymotrypsin proteolysis; higher = more stable. In outline:
as §1

Series [3] is described as follows: folding stability dG unfold (combined trypsin and chymotrypsin); higher = more stable. The gist of the method: as §1

Take “SEGSVRLEFTFTLPDGTRLTVEVTVHYDAATGEFHVSVSVRVEPLPDTSRPWEERPVRLPDGTWVSAADLSA [r9_898_TrMRF]”: the “folding stability dG unfold” value was found to be 2.54 ± 0.071 kcal/mol in series [1], 2.28 ± 0.1 kcal/mol in series [2] and 2.5 ± 0.13 kcal/mol in series [3].
For “SEITIKLKVENLSEEELKKLAEELAKEGLFEITSIKVENGYVTITIKKKPKPPPKPEKKKVVFDKDGKPVSA [r9_830_TrROS_Hall]”, in that order: 0.975 ± 0.071 kcal/mol, 2.58 ± 0.12 kcal/mol and 2.2 ± 0.14 kcal/mol.
For “SEITIYNKGKPPPEELLEALKKAPGFPPEDLRKNTKVEPNKDGPQITIPPEQAEQMSKRNPRIMEAIRELSA [r9_160_TrROS]”, in that order: 1.64 ± 0.098 kcal/mol, 1.75 ± 0.37 kcal/mol and 1.44 ± 0.48 kcal/mol.
For “SEKLTEEEVEKLAEELAKELEEETGKKVTVEVEVEKVEVEKDGEKEEVEVVRIKITVDPETGEVTIEVEPSA [r9_9_TrROS_Hall]”, in that order: 1.49 ± 0.11 kcal/mol, 1.43 ± 0.2 kcal/mol and 1.56 ± 0.45 kcal/mol.
As to “SEKPPKVKIVSVEYNPETGTVTITVEVEPGQKVRIFVRNSDGSVQEIDLESKTITINLPPGAEIVRIEVLSA [r9_113_TrROS_Hall]”, the “folding stability dG unfold” value was determined as 3.9 ± 0.23 kcal/mol in series [1], 4.16 ± 0.12 kcal/mol in series [2] and 4.09 ± 0.14 kcal/mol in series [3].
On the same counts, the results for “SEKVKKELNEAGYPVKDIKFVPEKGYAYITVEVYVPEVDKKVEKEIVIPFPDSATPEQLTEAARKALEADSA [r9_184_TrMRF]” are 3.04 ± 0.11 kcal/mol, 3.04 ± 0.076 kcal/mol and 3.09 ± 0.092 kcal/mol.
Regarding “SEMTAEELAARLAERLAEEHPGEEVTVEIEVEAEVVDEETGETRTVRVTVTLRFRDGKVEVVDVKVEELPSA [r9_361_TrROS_Hall]”, the “folding stability dG unfold” value worked out at 3.43 ± 0.092 kcal/mol in series [1], 4.49 ± 0.066 kcal/mol in series [2] and 4.18 ± 0.086 kcal/mol in series [3].
On the same counts, the results for “SEPPPKIKIKEVEYNPDDGYLTIPVTHPNGPKMRVKFRPPDGKTQEIPPNSPTITIPLPPNMRLTEIEVDSA [r9_113_TrROS]” are 3.51 ± 0.31 kcal/mol, 2.79 ± 0.29 kcal/mol and 3.22 ± 0.33 kcal/mol.
On to “SETVEIEIELPDGTKVTITVDKDGKVHITIEVPEDNPELLEKGSIEELAKKLAEELGLSEKDVEVTVLPPSA [r9_401_TrROS_Hall]”, for which the “folding stability dG unfold” value in series [1] turned out to be 2.98 ± 0.29 kcal/mol; in series [2] it was 2.45 ± 0.24 kcal/mol; in series [3] it was 2.8 ± 0.27 kcal/mol.
For “SEVVDTFSPPVTGSGEPRDFEIRLIKDENGNPVSVTMFDPVTGVEYPPDVSLEDLGVPPPVVEAFEAARRSS [r1_354_JUSTAS]”, in that order: -0.48 ± 0.08 kcal/mol, 0.0636 ± 0.062 kcal/mol and -0.0908 ± 0.069 kcal/mol.
On the same counts, the results for “SEVVFTLKDKPSPEELLKALAAVPGFSLETILKNTKVSPGKTGPKLTIKKEDFEKLEKENPEALEIIRSGSA [r9_160_TrMRF]” are 1.2 ± 0.026 kcal/mol, 1.01 ± 0.11 kcal/mol and 1.09 ± 0.089 kcal/mol.
On the same counts, the results for “SFGMIEIENEAFLPDGFRFKVEVWVMVDPDNGNLMIMLDIEIEPIPPPPPPPEPKPVKDKNGDWKPANDMSA [r9_898_TrROS]” are 1.82 ± 0.14 kcal/mol, 3.79 ± 0.14 kcal/mol and 3.12 ± 0.18 kcal/mol.
For “SFHVERDPEDNTIYIHFPPGMDPLELAKSLLKELREQQDDGPIKIHVHYGDWVFEIDIKKGKIEVRPPGESA [r9_224_TrROS]”, the “folding stability dG unfold” value in series [1] was 1.41 ± 0.1 kcal/mol; in series [2], 1.19 ± 0.16 kcal/mol; in series [3] it was 1.23 ± 0.18 kcal/mol.
For “SFIRKDPDGTYVIMGRMPPNMPIEEFLENLPGFKIKDVEYQPDPENGYWYFTLVITPRGKVKIDWVPMGDSA [r9_238_TrROS]”, in that order: 2 ± 0.03 kcal/mol, 1.91 ± 0.11 kcal/mol and 2 ± 0.11 kcal/mol.
